Tests used:
[1] = test system: SU-pcGBM2 cells; assay: EdU incorporation assay, proliferation index of pHGG cells (SU-pcGBM2); assay type: cell-based, human
[2] = test system: SU-pcGBM2 cells; assay: Annexin V FACS analysis of cell death; assay type: cell-based; conditions: 50 nM NLGN3, 24 h vs PBS
Protocol: After 24-hr exposure to PBS or NLGN3 (50 nM), SU-pcGBM2 cells were stained with DAPI (X-axis) and Annexin V-FITC (Y-axis) to detect cell death by FACS analysis, performed in biological duplicate. Live Annexin V^−/DAPI^− cells shown in lower left quadrant of contour plots; pre-apoptotic Annexin V^+/DAPI^− cells, left upper quadrant; dead Annexin V^+/DAPI^+ cells, right upper quadrant.
SU-pcGBM2 cells were cultured in minimal growth media together with 50 nM NLGN-3 recombinant protein (dissolved in PBS) or PBS only as a vehicle control in duplicate for 24 hrs. Cells were harvested for FACS analyses of apoptosis using Annexin V-FITC Apoptosis Detection Kit II (556570, BD Biosciences) according to the manufacturer's instruction with slight modifications. DAPI was used in combination with Annexin V-FITC to stain the apoptotic cell population instead of PI. The stained cells were analyzed using a BD Fortessa FACS machine (BD Biosciences). The data were analyzed using Flowjo software (FLOWJO, LLC).

[3] = test system: mTOR (phospho-4E-BP1 T37/46); assay: Western blot of phospho-4E-BP1 as reporter of mTOR activity; assay type: cell-based, human; conditions: 50 nM NLGN3 vs aCSF
Protocol: Top panel, 4E-P1^T37/46; bottom panel, total 4E-BP1. B) Quantification of p4E-BP1T37/46/4E-BP1 ratio fold change after NLGN3 exposure normalized to aCSF control (unpaired two-tailed Student's t-test). C) 50 nM NLGN3-induced increase in SU-pcGBM2 proliferation index (EdU assay) is blocked by inhibition of PI3K by BKM120 (100 nM). […] All experiments performed in n=3 biological replicates. Data shown as mean±SEM. (See also FIG. 34, Table in FIG. 18.)
Endogenous protein levels were determined using Western blot analysis. Briefly, after various treatments, 400,000 SU-pcGBM2 cells were lysed and loaded onto SDS-PAGE gels. Proteins were separated with gel electrophoresis and transferred to a PVDF membrane. Proteins were then probed for various antibodies as described in extended experimental procedures.

[4] = test system: Fos mRNA; assay: qPCR of Fos gene expression in pHGG cells; assay type: cell-based, human; conditions: 50 nM NLGN3, 1 hour vs vehicle
Protocol: (§1) A) Signaling through the PI3K pathway increases in response to NLGN3. Representative Western blot illustrating increased phosphorylation of AKT in response to various concentrations of NLGN3 ranging from 0-50 nM. p-AKT is shown in top panel; total AKT is shown in the bottom panel. B) Quantification of the increased fold change of pAKT/AKT ratio in response to NLGN3 at various doses (oneway ANOVA, F=17.99, P<001; data shown as mean±SEM; *P<0.05, **P<0.01, ***P<0.001 by Tukey's post-hoc tests to further examine pairwise comparisons). Fold change is normalized to blank media (aCSF). (C) Fos mRNA expression increases after 1 hour exposure to […] 50 nM NLGN3 (data shown as mean±SEM; **P<0.01 by unpaired two-tailed Student's t-test). D) NLGN3 mRNA expression increases after 12 hour exposure to 50 nM NLGN3 vs. vehicle in SU-[…] cells. […]
(§2) After various cell treatments (described in extended experimental procedures), RNA was extracted from 500,000 SU-pcGBM2 or SU-[…] cells using TRIzol reagent. cDNA was generated using RT-PCR, and gene expression changes were further probed using quantitative PCR.
(§3) 500,000 SU-pcGBM2 cells were exposed to either aCSF, 50 nM NLGN3 (Origene Technologies, Rockville), 500 nM BKM120 (SelleckChem, Houston, Tex.), 50 nM EGF (Shenandoah, Warwick, R.I.), or a combination of the above treatments. […] Differential expression was determined using the delta CT method. […]

[5] = test system: NLGN3 mRNA in SU-DIPGXIII cells; assay: qPCR of NLGN3 gene expression in DIPG cells; assay type: cell-based, human; conditions: 50 nM recombinant NLGN3, 12 hour vs vehicle
Protocol: as §1, §2, §3

B1: NLGN3: Recombinant full-length neuroligin-3 (Origene), tested as glioma mitogen (protein, listed as Mus musculus)
chain: MWLQPSLSLSPTPTVGRSLCLTLGFLSLVLRASTQAPAPTVNTHFGKLRGARVPLPSEILGPVDQYLGVPYAAPPIGEKRFLPPEPPPSWSGIRNATHFPPVCPQNIHTAVPEVMLPVWFTANLDIVATYIQEPNEDCLYLNVYVPTEDGSGAKKQGEDLADNDGDEDEDIRDSGAKPVMVYIHGGSYMEGTGNMIDGSVLASYGNVIVITLNYRVGVLGFLSTGDQAAKGNYGLLDQIQALRWVSENIAFFGGDPRRITVFGSGIGASCVSLLTLSHHSEGLFQRAIIQSGSALSSWAVNYQPVKYTSLLADKVGCNVLDTVDMVDCLRQKSAKELVEQDIQPARYHVAFGPVIDGDVIPDDPEILMEQGEFLNYDIMLGVNQGEGLKFVEGVVDPEDGVSGTDFDYSVSNFVDNLYGYPEGKDTLRETIKFMYTDWADRDNPETRRKTLVALFTDHQWVEPSVVTADLHARYGSPTYFYAFYHHCQSLMKPAWSDAAHGDEVPYVFGVPMVGPTDLFPCNFSKNDVMLSAVVMTYWTNFAKTGDPNKPVPQDTKFIHTKANRFEEVAWSKYNPRDQLYLHIGLKPRVRDHYRATKVAFWKHLVPHLYNLHDMFHYTSTTTKVPPPDTTHSSHITRRPNGKTWSTKRPAISPAYSNENAPGSWNGDQDAGPLLVENPRDYSTELSVTIAVGASLLFLNVLAFAALYYRKDKRRQEPLRQPSPQRGTGAPELGTAPEEELAALQLGPTHHECEAGPPHDTLRLTALPDYTLTLRRSPDDIPLMTPNTITMIPNSLVGLQTLHPYNTFAAGFNSTGLPHSHSTTRV
For B1, the proliferation index ([1]; pHGG cells exposed to 50 nM NLGN3, 24 h, EdU) was 0.40±0.01, the “effect on proliferation index, dose curve” value ([1]; recombinant NLGN3 0-100 nM, 24 hours) was “promotes proliferation, matching the mitogenic effect of active CM at low nanomolar concentrations” and the “effect on proliferation index relative to aCSF control” value ([1]; recombinant candidate proteins at 100 nM for 24 hours) was “promote glioma cell proliferation”. For the same molecule, the “cell death by Annexin V FACS analysis” value [2] was “no change in cell death”, the “phospho-4E-BP1 T37/46 relative to total 4E-BP1” value [3] was “increase in phospho-4E-BP1^T37/46 relative to total 4E-BP1” and the Fos gene expression [4] was “upregulation of Fos gene expression”. The NLGN3 gene expression [5] was “increase in glioma cell NLGN3 gene expression”.
